# Experimental data taken from patent US20060264369, “Aptamers to von Willebrand Factor and their use as thrombotic disease therapeutics” (published 2006).
# Key:
# [1] = molecular target: T1, von Willebrand factor full length (Homo sapiens, UniProt P04275 SEQ:764-2813); experiment: filter; 48.3% bound at 100 nM vWF; details: tags: Calbiochem 681300; label: 5'-32P
# Experimental: (§1) For KD determination, chemically synthesized aptamers were purified using denaturing polyacrylamide gel electrophoresis, 5′end labeled with γ-³²P ATP and were tested for direct binding to full length human vWF (Calbiochem Cat.# 681300, La Jolla, Calif.). An 8 point protein titration was used in the dot blot binding assay (100 nM, 30 nM, 10 nM, 3 nM, 1 nM, 300 pM, 100 pM, 0 pM)) in 1× Dulbecco's PBS containing […] (final volume of 50 uL) for 30 minutes at room temperature. KD values were calculated by fitting the equation y=(max/(1+K/protein))+yint using KaleidaGraph (KaleidaGraph v. 3.51, Synergy Software).
# [2] = molecular target: T1, von Willebrand factor full length; experiment: filter; 25.6% bound at 100 nM vWF; details: tags: Calbiochem 681300; label: 5'-32P
# Experimental: as §1
# [3] = molecular target: T1, von Willebrand factor full length; experiment: filter; no binding; details: tags: Calbiochem 681300; label: 5'-32P
# [4] = molecular target: T1, von Willebrand factor full length; experiment: filter; 46% bound at 100 nM vWF; details: tags: Calbiochem 681300; label: 5'-32P
# Experimental: as §1
# [5] = molecular target: T1, von Willebrand factor full length; experiment: filter; 23% bound at 100 nM vWF; details: tags: Calbiochem 681300; label: 5'-32P
# Experimental: as §1
# [6] = molecular target: T1, von Willebrand factor full length; experiment: filter; 39% bound at 100 nM; details: tags: Calbiochem 681300
# Experimental: as §1
# [7] = molecular target: T1, von Willebrand factor full length; experiment: filter; 56% bound at 100 nM vWF; details: tags: Calbiochem 681300; label: 5'-32P
# Experimental: as §1
# [8] = molecular target: T1, von Willebrand factor full length; experiment: filter; 36% bound at 100 nM vWF; details: tags: Calbiochem 681300; label: 5'-32P
# Experimental: as §1
# [9] = molecular target: T1, von Willebrand factor full length; experiment: filter; 25% bound at 100 nM vWF; details: tags: Calbiochem 681300; label: 5'-32P
# Experimental: as §1
# [10] = molecular target: T1, von Willebrand factor full length; experiment: filter; 28% bound at 100 nM vWF; details: tags: Calbiochem 681300; label: 5'-32P
# Experimental: as §1
# [11] = molecular target: T1, von Willebrand factor full length; experiment: filter; 45% bound at 100 nM; details: tags: Calbiochem 681300
# Experimental: as §1
# [12] = molecular target: T1, von Willebrand factor full length; experiment: filter; 49% bound at 100 nM; details: tags: Calbiochem 681300
# Experimental: as §1
# [13] = molecular target: T1, von Willebrand factor full length; experiment: filter; 47% bound at 100 nM vWF; details: tags: Calbiochem 681300; label: 5'-32P
# Experimental: as §1
# [14] = molecular target: T1, von Willebrand factor full length; experiment: filter; only 6% bound at 100 nM vWF; details: tags: Calbiochem 681300; label: 5'-32P
# Experimental: as §1
# [15] = molecular target: T1, von Willebrand factor full length; experiment: filter; 39% bound at 100 nM vWF; details: tags: Calbiochem 681300; label: 5'-32P
# Experimental: as §1
# [16] = molecular target: T1, von Willebrand factor full length; experiment: filter; 9% bound at 100 nM vWF; details: tags: Calbiochem 681300; label: 5'-32P
# Experimental: as §1
# [17] = molecular target: T1, von Willebrand factor full length; experiment: filter; 37% bound at 100 nM; details: tags: Calbiochem 681300
# Experimental: as §1
# [18] = molecular target: T1, von Willebrand factor full length; experiment: filter; 37% bound at 100 nM vWF; details: tags: Calbiochem 681300; label: 5'-32P
# Experimental: as §1
# [19] = molecular target: T1, von Willebrand factor full length; experiment: filter; only 2% bound at 100 nM vWF; details: tags: Calbiochem 681300; label: 5'-32P
# Experimental: as §1
# [20] = molecular target: T1, von Willebrand factor full length; experiment: filter; 43% bound at 100 nM vWF; details: tags: Calbiochem 681300; label: 5'-32P
# Experimental: as §1
# [21] = molecular target: T1, von Willebrand factor full length; experiment: filter; 50% bound at 100 nM vWF; details: tags: Calbiochem 681300; label: 5'-32P
# Experimental: as §1
# [22] = molecular target: T1, von Willebrand factor full length; experiment: filter; 16% bound at 100 nM vWF; details: tags: Calbiochem 681300; label: 5'-32P
# Experimental: as §1
# [23] = molecular target: T1, von Willebrand factor full length; experiment: filter; 18% bound at 100 nM vWF; details: tags: Calbiochem 681300; label: 5'-32P
# Experimental: as §1
# [24] = molecular target: T1, von Willebrand factor full length; experiment: filter; 21% bound at 100 nM vWF; details: tags: Calbiochem 681300; label: 5'-32P
# Experimental: as §1
# [25] = molecular target: T1, von Willebrand factor full length; experiment: filter; 33% bound at 100 nM vWF; details: tags: Calbiochem 681300; label: 5'-32P
# Experimental: as §1
# [26] = molecular target: T1, von Willebrand factor full length; experiment: filter; 17% bound at 100 nM vWF; details: tags: Calbiochem 681300; label: 5'-32P
# Experimental: as §1
# [27] = molecular target: T1, von Willebrand factor full length; experiment: filter; DPBS, 0.1 mg/mL BSA, RT; details: tags: Calbiochem 681300; label: 5'-32P
# Experimental: Minimers were tested for direct binding to full length human vWF (SEQ ID NO 7), and rabbit vWF A1 domain (SEQ ID NO 6) using a 9 point protein titration (100 nM, 30 nM, 10 nM, 3 nM, 1 nM, 300 pM, 100 pM, 30 pM, 0 pM) (see FIG. 6) in 1×Dulbecco's PBS containing 0.1 mg/mL BSA (final volume of 50 uL) for 30 minutes at room temperature and then applied to a nitrocellulose and nylon filter sandwich in a dot blot apparatus (Schleicher and Schuell, Keene, N.H.). KD values were calculated by fitting the equation y=(max/(1+K/protein))+yint using KaleidaGraph (KaleidaGraph v. 3.51, Synergy Software).
binder,measurement,setting,value
"CCGGCCGTGCGGTGCCUCCGUCACUUUGUGCAGUGCCGG (mixed, 2'-OMe/deoxy composite, single PS, 3'-idT) [ARC1535]",Kd,[1],27.1 nM
"CGGCCGTGCGGTGCCUCCGUCACUUUGUGCAGUGCCG (mixed, 2'-OMe/deoxy composite, single PS, 3'-idT) [ARC1534]",Kd,[2],62.8 nM
ATGAGAGTGCTGGTGGATTGCTCAGGTCTGCTGGCTGCTTACTCTCAT (ssDNA) [ARC845],binding result,[3],no binding
"GGCGTGCAGTGCCTTCGGCCGTGCGGTGCCTCCGTCACGCC (ssDNA, single PS between G21 and T22, 3'-idT) [ARC1759]",Kd,[4],0.7 nM
"GGCGTGCAGTGCCTTCGGCCGTGCGGTGCCTCCGTCACGCC (mixed, 2'-OMe G1 G2 G4 G6 A37 G39, 3'-idT) [ARC1235]",Kd,[5],13 nM
"GGCGTGCAGTGCCTTCGGCCGTGCGGTGCCTCCGTCACGCC (ssDNA, 2'-OMe at 40; 3'-idT) [ARC1233]",Kd,[6],2 nM
"GGCGTGCAGTGCCTTCGGCCGTGCGGTGCCTCCGTCACGCC (ssDNA, 2'-OMe G9, 3'-idT) [ARC1202]",Kd,[7],0.4 nM
GGCGTGCAGTGCCTTCGGCCGTGCGGTGCCTCCGTCACGCC (ssDNA) [ARC1115],Kd,[8],2 nM
"GGCGTGCAGTGCCTTCGGCCGTGCGGTGCCTCCGTCACGCC (ssDNA, 2'-OMe C33, 3'-idT) [ARC1226]",Kd,[9],12 nM
"GGCGTGCAGTGCCTTCGGCCGTGCGGTGCCTCCGTCACGCC (ssDNA, 2'-OMe G6, 3'-idT) [ARC1199]",Kd,[10],19 nM
"GGCGTGCAGTGCCTTCGGCCGTGCGGTGCCTCCGTCACGCC (ssDNA, 2'-OMe at 11; 3'-idT) [ARC1204]",Kd,[11],2 nM
"GGCGTGCAGTGCCTTCGGCCGTGCGGTGCCTCCGTCACGCC (ssDNA, 2'-OMe at 17; 3'-idT) [ARC1210]",Kd,[12],2 nM
"GGCGTGCAGTGCCTTCGGCCGTGCGGTGCCUCCGTCACGCC (ssDNA, 2'-OMe U31, 3'-idT) [ARC1224]",Kd,[13],0.5 nM
"GGCGTGCAGTGCCTTCGGCCGTGCGGTGCCTCCGTCACGCC (ssDNA, 2'-OMe A8, 3'-idT) [ARC1201]",Kd,[14],0.9 nM
"GGCGTGCAGUGCCTTCGGCCGTGCGGTGCCTCCGUCACGCC (mixed, 2'-OMe at 9, 10, 21, 23, 34-36, 3'-idT) [ARC1339]",Kd,[15],2.4 nM
"GGCGUGCAGTGCCTTCGGCCGTGCGGTGCCTCCGTCACGCC (mixed, 2'-OMe at 1-6 and 36-41, 3'-idT) [ARC1237]",Kd,[16],41 nM
"GGCGTGCAGTGCCTTCGGCCGTGCGGTGCCTCCGTCACGCC (ssDNA, 2'-OMe at 36; 3'-idT) [ARC1229]",Kd,[17],5 nM
"GGCGTGCAGTGCCTTCGGCCGTGCGGTGCCTCCGTCACGCC (ssDNA, 3'-idT) [ARC1172]",Kd,[18],2 nM
"GGCGTGCAGTGCCTUCGGCCGTGCGGTGCCTCCGTCACGCC (ssDNA, 2'-OMe at 15 (mU); 3'-idT) [ARC1208]",Kd,[11],2 nM
"GGCGTGCAGTGCCTTCGGCCGTGCGGTGCCTCCGTCACGCC (ssDNA, 2'-OMe G25, 3'-idT) [ARC1218]",Kd,[19],32 nM
"GGCGTGCAGTGCCTTCGGCCGTGCGGTGCCTCCGTCACGCC (ssDNA, 2'-OMe at 19; 3'-idT) [ARC1212]",Kd,[12],2 nM
"GGCGTGCAGTGCCTTCGGCCGTGCGGTGCCUCCGUCACGCC (mixed, 2'-OMe at 23, 28, 29, 31, 34-36, 3'-idT) [ARC1340]",Kd,[20],7.4 nM
"GGCGTGCAGTGCCTTCGGCCGTGCGGTGCCTCCGTCACGCC (ssDNA, 2'-OMe at 12,13,19; 3'-idT) [ARC1239]",Kd,[17],5 nM
"GGCGUGCAGTGCCTTCGGCCGTGCGGTGCCTCCGTCACGCC (ssDNA, 2'-OMe U5, 3'-idT) [ARC1198]",Kd,[21],0.9 nM
"GGCGTGCAGTGCCTTCGGCCGTGCGGTGCCTCCGTCACGCC (ssDNA, 2'-OMe C32, 3'-idT) [ARC1225]",Kd,[22],11 nM
"GGCGTGCAGTGCCTTCGGCCGTGCGGTGCCTCCGTCACGCC (ssDNA, 2'-OMe at 21; 3'-idT) [ARC1214]",Kd,[6],3 nM
"GGCGTGCAGTGCCTTCGGCCGTGCGGTGCCTCCGTCACGCC (ssDNA, 2'-OMe C24, 3'-idT) [ARC1217]",Kd,[23],14 nM
"GGCGUGCAGTGCCTTCGGCCGTGCGGTGCCTCCGTCACGCC (mixed, 2'-OMe at 1-5 and 37-41, 3'-idT) [ARC1338]",Kd,[24],7.4 nM
"GGCGTGCAGTGCCTTCGGCCGTGCGGTGCCTCCGTCACGCC (ssDNA, 2'-OMe C7, 3'-idT) [ARC1200]",Kd,[9],5 nM
"GGCGUGCAGUGCCUUCGGCCGTGCGGTGCCUCCGUCACGCC (mixed, 2'-OMe/deoxy composite as printed in Table 22, 3'-idT) [ARC1342]",Kd,[25],15.6 nM
"GGCGUGCAGUGCCUUCGGCCGTGCGGTGCCUCCGUCACGCC (mixed, 2'-OMe/deoxy composite with 4 PS as printed in Table 22, 3'-idT) [ARC1343]",Kd,[24],23.9 nM
"GGCGUGCAGUGCCUUCGGCCGTGCGGTGCCUCCGUCACGCC (mixed, 2'-OMe/deoxy composite with multiple PS as printed in Table 22, 3'-idT) [ARC1344]",Kd,[26],4.8 nM
"GGCGTGCAGTGCCTATTCTAGGCCGTGCGGTGCCTCCGTCACGCC (ssDNA, 3'-idT) [ARC1027]",Kd,[27],0.8 nM
